# From publication PMC8764538
# Tested on: T1, LuxT-6xHis (Vibrio harveyi BB120 (ATCC BAA-1116; reclassified Vibrio campbellii BB120)?), ORF:7f3e8717
# T1 sequence: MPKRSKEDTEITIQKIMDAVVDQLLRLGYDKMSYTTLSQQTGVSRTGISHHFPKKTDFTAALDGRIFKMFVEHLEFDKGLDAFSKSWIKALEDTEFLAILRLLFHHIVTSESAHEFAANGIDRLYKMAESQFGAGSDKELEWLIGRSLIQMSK
# Assay: EMSA
# Settings: EMSA: 20 nM DNA probe, LuxT-6xHis dimer 20-320 nM (1x-16x); buffer, salt, pH and temperature not given (described in cited ref 18)
row,Sequence,binding
1,GTTTGATCTGCTTAATAAATCTGGTTAAAAGTTATTAATTAACTTTAAAAAAATAACCCAAGATACTAGTGTTTTTTCAAATTCAAAGGAGAAGCTCTTGATATGGA (double strand) [PluxC control probe],no binding
2,TGGCATATTTTAAGCTCTTCTCTTTGTAAATCCATCTAACTCACATTTAAATGAGGCCAGAATGAAATCATCCTCAGCATTATGTATTGTATGTCCTTG (double strand) [PluxT promoter probe],binds
3,AATCATCAGTTCAATAAAAAAGAGGGCTTCAGCCCTCTTTTTTTATATATTTAATCTTGCCCTCATAATCAGTACGCTGTATTATCAATTACAACCGAACTACGTACTGTTTA (double strand) [PswrZ promoter probe],binds
